Patent publication US5558865

Columns and labels:
[1] = biological target: native HIV-1MN gp120 (HIV-1 strain MN) (UniProt P05877)
[2] = biological target: native HIV-1IIIB gp120 (HIV-1 strain IIIB) (UniProt P04578)
[3] = biological target: native HIV-1MN gp120 (HIV-1 strain MN) (UniProt P05877); remark: listed apart in the source
[4] = biological target: native HIV-1IIIB gp120 (HIV-1 strain IIIB) (UniProt P04578); remark: listed apart in the source
[5] = biological target: gp120 of HIV-1 strain RF (HIV-1 strain RF)
[6] = biological target: peptide of amino acids 322-336 of HIV-1MN gp120 (HIV-1 strain MN); assay: peptide ELISA, 500 ng MIgG
[7] = biological target: peptide of amino acids 302-316 of HIV-1MN gp120 (HIV-1 strain MN); assay: peptide ELISA, 500 ng MIgG
[8] = biological target: peptide of amino acids 312-326 of HIV-1MN gp120 (HIV-1 strain MN); assay: peptide ELISA, 500 ng MIgG

Chain of monoclonal antibody NM-01 (VH): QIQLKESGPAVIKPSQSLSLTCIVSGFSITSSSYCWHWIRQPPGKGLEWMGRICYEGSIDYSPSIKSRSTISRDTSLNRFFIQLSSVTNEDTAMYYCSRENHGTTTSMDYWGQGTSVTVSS
Chain of monoclonal antibody NM-01 (VL): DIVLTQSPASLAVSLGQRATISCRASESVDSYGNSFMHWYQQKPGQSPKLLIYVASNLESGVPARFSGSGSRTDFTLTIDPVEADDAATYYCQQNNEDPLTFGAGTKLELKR

Substance	ID50, syncytium formation of MN-infected H9 cells with C8166 cells [1] [µg/mL]	ID50, syncytium formation of IIIB-infected H9 cells with C8166 cells [2] [µg/mL]	ID50, MT-2 assay (cell viability by MTT), live MN virus [3] [µg/mL]	ID50, MT-2 assay (cell viability by MTT), live IIIB virus [4] [µg/mL]	ID50, syncytium formation of RF-infected cells [5] [µg/mL]	optical density at 650 nm [6] [OD 650 nm]	optical density at 650 nm [7] [OD 650 nm]	optical density at 650 nm [8] [OD 650 nm]
monoclonal antibody NM-01	2	3	2	0.1	4	–	–	–
mouse IgG (polyclonal serum or antibody)	–	–	–	–	–	0.042	0.049	0.043
